Reference: PMC8358021 (2021)

Biological target: T1, AbApeO-AbApeC heterodimer (ketosynthase-chain length factor complex of the aryl polyene biosynthesis gene … (Acinetobacter baumannii))
T1 chain 1: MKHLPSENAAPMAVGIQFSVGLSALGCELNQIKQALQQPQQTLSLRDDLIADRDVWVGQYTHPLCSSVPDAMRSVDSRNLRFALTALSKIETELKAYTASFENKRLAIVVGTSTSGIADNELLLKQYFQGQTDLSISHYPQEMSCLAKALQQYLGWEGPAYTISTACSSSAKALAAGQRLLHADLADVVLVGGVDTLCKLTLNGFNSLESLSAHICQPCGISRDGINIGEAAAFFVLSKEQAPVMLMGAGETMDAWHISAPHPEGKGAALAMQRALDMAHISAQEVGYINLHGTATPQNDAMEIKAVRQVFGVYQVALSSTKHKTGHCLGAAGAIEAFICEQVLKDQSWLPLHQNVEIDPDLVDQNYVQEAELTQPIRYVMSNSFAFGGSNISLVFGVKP
T1 chain 2: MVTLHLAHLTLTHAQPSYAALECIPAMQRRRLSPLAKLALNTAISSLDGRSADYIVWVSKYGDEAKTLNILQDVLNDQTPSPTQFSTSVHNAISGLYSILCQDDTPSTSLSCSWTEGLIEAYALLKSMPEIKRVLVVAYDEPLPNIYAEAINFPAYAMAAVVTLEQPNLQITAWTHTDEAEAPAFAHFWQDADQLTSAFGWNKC
Assay: ITC

B1: holo ACP2 (ApeF), acyl carrier protein 2 of the A. baumannii APE gene cluster (natural protein)
chain: MSNLADELKQMIIDVLALEDITIADIDTEAPLFGEGLGLDSIDALELGLALKKRYNIHLNAESDETKQHFKSIQSLVALVEAQQKS
modifications: 4'-phosphopantetheine (holo form)
- Kd: 42.7 µM
